# From patent US20250271449A1
# Columns and labels:
# [1] = molecular target: mitochondrial transcription factor B2 (TFB2M) protein (human) (UniProt Q9H5Q4); assay: in situ proximity ligation assay (anti-TFAM sc-376672 and anti-TFB2M 13676), fixed PBMCs from septic patients (n=10), mean
# [2] = molecular target: mitochondrial transcription factor B2 (TFB2M) protein (human) (UniProt Q9H5Q4); assay: in situ proximity ligation assay (anti-TFAM sc-376672 and anti-TFB2M 13676), fixed PBMCs from healthy controls (n=20), mean
# Sequence of UniProt Q9H5Q4 (Q9H5Q4 44-396): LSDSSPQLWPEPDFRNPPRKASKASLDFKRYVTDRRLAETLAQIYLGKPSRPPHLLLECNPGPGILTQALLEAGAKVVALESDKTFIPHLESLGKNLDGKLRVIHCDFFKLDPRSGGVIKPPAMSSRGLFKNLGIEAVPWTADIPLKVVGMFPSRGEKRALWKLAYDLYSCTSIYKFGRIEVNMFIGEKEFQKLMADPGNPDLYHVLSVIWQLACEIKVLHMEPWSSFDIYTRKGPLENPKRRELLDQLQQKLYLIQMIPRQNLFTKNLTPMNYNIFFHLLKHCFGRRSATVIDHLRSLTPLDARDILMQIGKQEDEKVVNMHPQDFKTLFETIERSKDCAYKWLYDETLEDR
substance,measurement,setting,value
mature mitochondrial transcription factor A (TFAM) protein (from UniProt Q00059 43-246),PLA signals per cell (signals per cell),[1],1.2
same,PLA signals per cell (signals per cell),[2],4.5
